Laboratory results from US20250041416A1 (Innovent, published 2025).
Residue numbers refer to the chain shown, from its start. Names and notes keep the numbering of the source.

Tests used:
ADI-38497 WT antibody = biological target: T1, ADI-38497 WT antibody; test: SPR (Biacore T200), avidity format: ADI-38497 WT IgG captured on anti-Fab IgG on an HLC chip, anti-PG scFv fusion protein in the mobile phase
T1 construct: also called WT BCMA antibody
Protocol: The assay procedure was performed using a 10-fold dilution of 10×HBS-EP+(BR-1006-69, Cytiva) as the experimental buffer. […] A gradient dilution of anti-PG scFv (concentration gradient of 1.25 nM-40 nM, 2-fold dilution) was flowed over the chip surface from low to high concentration in a flow rate of 30 μl/min, with an association time of 180 s and a dissociation time of 300 s. Finally, the chip was regenerated with 10 mM glycine-HCl, pH 1.5 (BR-1003-54, Cytiva).
The data results were analyzed by Biacore T200 analysis software (version 3.1) using a 1:1 binding model.

Human BCMA-IHM [1] = biological target: T2, Human BCMA-IHM (human, UniProt Q02223 1-54, limits assumed); test: Biacore (SPR), Fab, human BCMA-IHM, monovalent
T2 construct: any tag or fusion partner is unknown
T2 sequence (looked up): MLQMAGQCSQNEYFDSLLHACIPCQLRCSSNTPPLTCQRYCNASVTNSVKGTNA

Human BCMA on cells [2] = biological target: T3, Human BCMA on cells (human, UniProt Q02223 1-184); test: cell binding on human BCMA CHO-S cells
T3 construct: whole, on cells; also called hBCMA-CHO GS; Human BCMA CHO-S
T3 sequence (looked up): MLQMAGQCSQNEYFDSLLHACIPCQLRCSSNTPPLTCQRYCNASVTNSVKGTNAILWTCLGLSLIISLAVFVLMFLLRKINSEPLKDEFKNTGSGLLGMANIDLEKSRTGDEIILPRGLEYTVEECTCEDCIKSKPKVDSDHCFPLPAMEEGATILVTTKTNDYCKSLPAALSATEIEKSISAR

Human BCMA on cells [3] = biological target: T3, Human BCMA on cells; test: cell binding on H929 cells (human BCMA)
Human BCMA-IHM [4] = biological target: T2, Human BCMA-IHM; test: ForteBio (BLI), IgG, human BCMA-IHM, monovalent
[5] = biological target: Cynomolgus monkey BCMA-Fc (cynomolgus monkey, UniProt A0A2K5UD97 1-53); test: ForteBio (BLI), IgG, cynomolgus monkey BCMA-Fc, avid
Chain of Cynomolgus monkey BCMA-Fc (A0A2K5UD97 entry or part of it): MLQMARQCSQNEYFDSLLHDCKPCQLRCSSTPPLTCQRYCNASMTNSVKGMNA

B1: anti-P329G mutation-specific single chain antibody-rabbit Fc fusion protein (Fc fusion)
chain: EVQLVESGGGLVQPGGSLRLSCAASGFTFSRYWMNWVRQAPGKGLEWVGEITPDSSTINYAPSLKGRFTISRDNAKNSLYLQMNSLRAEDTAVYYCARPYDYGAWFASWGQGTLVTVSSGGGGSGGGGSGGGGSGGGGSQAVVTQEPSLTVSPGGTVTLTCRSSTGAVTTSNYANWVQEKPDHLFTGLIGGTNKRAPGTPARFSGSLLGGKAALTLSGAQPEDEAEYYCALWYSNHWVFGGGTKLTVLGGGGSSKPTCPPPELLGGPSVFIFPPKPKDTLMISRTPEVTCVVVDVSQDDPEVQFTWYINNEQVRTARPPLREQQFNSTIRVVSTLPIAHQDWLRGKEFKCKVHNKALPAPIEKTISKARGQPLEPKVYTMGPPREELSSRSVSLTCMINGFYPSDISVEWEKNGKAEDNYKTTPAVLDSDGSYFLYSKLSVPTSEWQRGDVFTCSVMHEALHNHYTQKSISRSPGK
notes: scFv of the P329G CAR extracellular domain fused to rabbit Fc; also called anti-PG scFv fusion protein; anti-PG scFv
ADI-38497 WT antibody
  binding result: no binding

B2: ADI-38497 Fab (Fab, V domains shown)
VH: QLQLQESGPGLVKPSETLSLTCTVSGGSIVSSSYYWTWIRQPPGKGLEWIGSISIAGSTYYNPSLKSRVTISVDTSKNQFSLKLSSVTAADTAVYYCARDRGDQILDVWSQGTMVTVSS
VL: DIQMTQSPSSLSASVGDRVTITCRASQSISRYLNWYQQKPGKAPKLLIYAASSLQSGVPSRFSGSGSGTDFTLTISSLQPEDFATYYCQQKYFDITFGGGTKVEIK
Human BCMA-IHM [1]
  Kd: 0.104 nM

B3: ADI-34861 (antibody, V domains shown)
VH: B2 VH with V30S, T37G, I55Y, A56S, Q104T, S110G
VL: B2 VL
notes: also called BCMA parent antibody ADI-34861
Human BCMA on cells [2]
  Cell Binding, FOB (Fold Over Background): 4 fold
Human BCMA on cells [3]
  Cell Binding, FON (Fold Over Negative): 6 fold

B4: ADI-38497 (IgG as tested in Table 2) (antibody, V domains shown)
VH: B2 VH
VL: B2 VL
Human BCMA on cells [2]
  Cell Binding, FOB (Fold Over Background): 8 fold
Human BCMA on cells [3]
  Cell Binding, FON (Fold Over Negative): 26 fold

B5: ADI-38484 (IgG as tested in Table 2) (antibody, V domains shown)
VH: QVQLVQSGAEVKKPGSSVKVSCKASGGTFSNDVISWVRQAPGQGLEWMGVIIPIFGIANYAQKFQGRVTITADESTSTAYMELSSLRSEDTAVYYCARGRGYYSSWLHDIWGQGTMVTVSS
VL: DIQMTQSPSSLSASVGDRVTITCQASQDITNYLNWYQQKPGKAPKLLIYDASNLETGVPSRFSGSGSGTDFTFTISSLQPEDIATYYCQQAFDLITFGGGTKVEIK
Human BCMA on cells [2]
  Cell Binding, FOB (Fold Over Background): 11 fold
Human BCMA on cells [3]
  Cell Binding, FON (Fold Over Negative): 35 fold

B6: ADI-38484 Fab (Fab, V domains shown)
VH: B5 VH
VL: B5 VL
Human BCMA-IHM [1]
  Kd: 0.0132 nM

B7: ADI-34857 (antibody, V domains shown)
VH: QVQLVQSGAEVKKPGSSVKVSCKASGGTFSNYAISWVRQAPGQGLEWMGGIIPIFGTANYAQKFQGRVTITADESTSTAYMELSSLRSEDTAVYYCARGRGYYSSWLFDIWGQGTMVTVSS
VL: B5 VL
notes: also called BCMA parent antibody ADI-34857
Human BCMA-IHM [4]
  Kd: 27.7 nM
[5]
  Kd: 5.93 nM
Human BCMA on cells [2]
  Cell Binding, FOB (Fold Over Background): 2 fold
Human BCMA on cells [3]
  Cell Binding, FON (Fold Over Negative): 5 fold
